Assay results from article PMC5018249.

Columns and labels:
[1] = biological target: BG505 SOSIP-GT3-PADRE (HIV-1 strain BG505); assay: SEC-MALS; purified immunogen in solution; conditions not given
[2] = biological target: BG505 SOSIP.D664 (HIV-1 strain BG505); assay: SEC-MALS + other: negative-stain electron microscopy; in-house purified BG505 SOSIP trimers, thawed and analysed

Row | Substance | stoichiometry N [1] | stoichiometry N [2]
1 | BG505 SOSIP-GT3-PADRE | 3 | 
2 | BG505 SOSIP.D664 (domain or fragment) |  | 3
